Test: yeast display, Sf9 membrane polyspecificity reagent, FACS + sequencing; frameworks hold sequencing errors
Summary of the method: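 Polyreactivity labels are assigned by the sorting gate from which each nanobody was recovered. The gates were low and high (top ~1%), set on anti-HA fluorescence for expression and streptavidin fluorescence for reagent binding. Before sorting, galactose-induced (36–48 hours) yeast display cells were stained for 1 hour at 4 °C with 10% biotinylated, detergent-solubilized Sf9 membrane reagent.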

Row | Sequence | polyreactivity (PSR sort gate)
1 | QVQLVESGGGLVQAGGSLRLSCAASGSIIGRYTMGWYRQAPGKERELVAAISRSGGSTYYADSVKGRFTISRDNAKNTVYLQMNSLKPEDTAVYYCAKRTYTPRGERLYSSYDYWGQGTQVTVSS | high polyreactivity
2 | QVQLVESGGGLVQAGGSLRLSCAASGSIIGSNAMGWYRQAPGKERELVAAISRSGTRTYYADSVKGRFTISRDNAKNTVYLQMNSLKPEDTAVYYCATRGGGYWGQGTQVTVSS | high polyreactivity
3 | QVQLVESGGGLVQAGGSLRLSCAASGSIIGTNVMGWYRQAPGKERELVASISYRDGTTYYADSVKGRFTISRDNAKNTVYLQMNSLKPEDTAVYYCAVANYYSYYWGQGTQVTVSS | low polyreactivity
4 | QVQLVESGGGLVQAGGSLRLSCAASGSIIGYYAMGWYRQAPGKERELVAAISRTGGSTYYADSVKGRFTISRDNAKNTVFLPMNSLKPEDTAVYYCATRTYARHDYWGQGTQGTVSS | high polyreactivity
5 | QVQLVESGGGLVQAGGSLRLSCAASGSIILLYAMGWYRQAPGKERELVAAISRSGDSTHYADSVKGRFTISRDNAKNTVYLQMNSLKPEDTAVYYCAADGYHPYGGLYDYCGQGTQVTVSS | low polyreactivity
6 | QVQLVESGGGLVQAGGSLRLSCAASGSIIPRNVMGWYRQAPGKERDLVAAISSSGGSTSYADSVKGRFTISRDNAKNTVYLQMNSLKPEDTAVYYCNAPWQRYSAPWGQGYNYWGQGTQVTVSS | high polyreactivity
7 | QVQLVESGGGLVQAGGSLRLSCAASGSIIQVYAMGWYRQAPGKERELVASITRTGGSTYYADSVKGSFTISRDNAKNTVYLQMNSLKPEDTAVYYCAARRVTSPFGSDSWGQGTQVTVSS | low polyreactivity
8 | QVQLVESGGGLVQAGGSLRLSCAASGSIIRDNAMGWYRQAPGKERELVAAISVSGGRTYYADSVKGRFTISRDNAKNTVYLQMNSLKPEDTAVYYCAALRRPSYPGRFAELDYWGQGTQVTVSS | high polyreactivity
9 | QVQLVESGGGLVQAGGSLRLSCAASGSIIRINAMGWYRQAPGKERELVAAISTRSGRTYYADSVKGRFTISRDNAKNTVYLQLNSLKPEDTAFYYCARYRTQASGYGGYHYWGQGTQVTVSS | high polyreactivity
10 | QVQLVESGGGLVQAGGSLRLSCAASGSIISGYAMGWYRQAPGQERELVAAISRSGGRTYYADSVKGRFTISRDNAKNTVYLQMNSLKPEETAVYYCAAKIYIPRGYDYWGQGTQVTVSS | high polyreactivity
11 | QVQLVESGGGLVQAGGSLRLSCAASGSIISGYAMGWYRQAPGTERELVAAISSSGGRTYYADSVKGRFTISRDNAKNTVYLQMNSLKPEDTAVYYCAAAYTITYDYWGQGTQVTVSS | high polyreactivity
12 | QVQLVESGGGLVQAGGSLRLSCAASGSIISRNAMGWYRQAPGKERELVATIRYRGGSTYYADSVKGRFTISRDNAKNTVYLQMNSLKPEDTAVYYCAARRSHPPDPRFRYGYWGQGTQVTVSS | high polyreactivity
13 | QVQLVESGGGLVQAGGSLRLSCAASGSIISYYAMGWYRQAPGKEWELVAAISWSGGSTYYADSVKGRFTISRDNAKNTVYLQRNSLTPEDTAVYYCAKYAYPRSRYTPYGSYDYWGQGTQVTVSS | high polyreactivity
14 | QVQLVESGGGLVQAGGSLRLSCAASGSIITWYAMGWYRQAPGKERELVAAISNSDSSTYYADSVKGRFTISRDNAKNTVYLQMNILKPEDTAVYYCAAEYGLAWYNFEHWGQGTQVTVSS | high polyreactivity
15 | QVQLVESGGGLVQAGGSLRLSCAASGSIIVDNAMGWYRQAHGKERELVAAITDSGGRTYYADSVKGRYTISRDNAKNTVYLQMNSLKPEDTAVYYCNKQYIYTGRYSDGFDYCGQGTQVTVSS | low polyreactivity
16 | QVQLVESGGGLVQAGGSLRLSCAASGSIIVNYDMGWYRQAPGKERELVAAISSGGSTKYADSVKGRFTISRDNAKNTVYLQMNSLKPEDTAVYYCAAGKHVTFSYEYRMDYWGQGTQVTVSS | low polyreactivity

Row | Sequence | polyreactivity (PSR sort gate)
17 | QVQLVESGGGLVQAGGSLRLSCAASGSIIVRNALGWYRQEPGTERELVAAISWGGGRTYYADSVKGRFTISRDNAKNTVYLQMNSLKPEDTAVYYCAAVHRAVQMGYWGQGTQVTVSS | high polyreactivity
18 | QVQLVESGGGLVQAGGSLRLSCAASGSIIVRYAMGWYRQAPGKERALVATITFRDTSTYYADSVKGRFTITRDNAKNTVYLQMNSLKPEDTAVYYCAAVRADLWDIARYDYWGQGTQVTVSS | low polyreactivity
19 | QVQLVESGGGLVQAGGSLRLSCAASGSIIYFNAMGWYRQAPGKERELVAAITRSGGSTYYADSVKGRFTISRDNAKNTVYLQMNSLKPEDTAVYYCAAEVWRTYSVEYDYWGQGTQVTVSS | high polyreactivity
20 | QVQLVESGGGLVQAGGSLRLSCAASGSIIYHYAMGWYRQAPGKERELVAAITSSGGSTYYADSVKGRFTISRDNAKNTVYLQMNSLKPEDTEVYYCAVESRGRAGGNYWGQGTQVTVSS | low polyreactivity
21 | QVQLVESGGGLVQAGGSLRLSCAASGSIIYLYAMGWYRQAPGKERELVAAINDDAGSTYYADSVKGRFTISRDNAKNTVYLQMNSLKPEDTAVYYCNAGSRSTEYDYWGQGTQVTVSS | low polyreactivity
22 | QVQLVESGGGLVQAGGSLRLSCAASGSILAIYAMGWYRQAPGKERELVAAITWSGDSTYYADSVKGRFTISRDNAKNTVYLQMNSLKPEDTAVYYCAAGPGYWYEHEYWGQGTQVTVSS | low polyreactivity
23 | QVQLVESGGGLVQAGGSLRLSCAASGSILALYTMGWYRQAPGKEREFVATITSSDGSTYYADSVKGRFTISRDNAKNTVYLQMNSLKPEDTAVYYCNARGSVYYLKFDYWGQGTQVTVSS | low polyreactivity
24 | QVQLVESGGGLVQAGGSLRLSCAASGSILAYNAMGWYRQAPGKEREFVAAITGGVGSTYYADSVKGRFTISRDNAKNTVYLQMNSLKPEDTAVYYCAKRTYHEYNNQFVKYYYWGQGTQVTVSS | high polyreactivity
25 | QVQLVESGGGLVQAGGSLRLSCAASGSILAYNAMGWYRQAPGKERELVASISKSGSSTYADSVKGRFTISRDNAKNTVYLQMNSLNPEDTAVYYCNARYYFSYYAFDYWGQGTQVTVSS | low polyreactivity
26 | QVQLVESGGGLVQAGGSLRLSCAASGSILDFNAMGWYRQAPGKERELVAAISDSSGSTFYAVSVKGRFTISRDNAKNTVYLLMISLKPEDTAVYYCAARLGFYPYGYTSWYTVYFWGQGTQVTVSS | low polyreactivity
27 | QVQLVESGGGLVQAGGSLRLSCAASGSILDPNAMGWYRQAPGKESELVANITNGGRTNFADSVKGRFTISRDNAKNTVYFQMNRLKPEDTAVYYCAKDSTFNSVTVLAPIIYDSWGQATQVTVSS | low polyreactivity
28 | QVQLVESGGGLVQAGGSLRLSCAASGSILESNVMGWYRQAPGKERELVASISSSGDSTYADSVKGRFTISRDNAKNTVYLQMNSLKPEDTAVYYCNADRTQDRNPYTYATFDYWGQGTQVTVSS | low polyreactivity
29 | QVQLVESGGGLVQAGGSLRLSCAASGSILESNVMGWYRQAPGKERELVASISSSGDSTYADSVKGRFTISRDNAKNTVYLQMNSLKPEDTEVYYCAADRWYWTYALYYWGQGTQVTVSS | low polyreactivity
30 | QVQLVESGGGLVQAGGSLRLSCAASGSILFHYAMGWYRQAPGKERELVAAISRRGGSTYYADSVKGRFTISRDNAKNTVYFQMNSLKPEDNAVYYCAKYPSAYVDSDVTYDMDYWGQGTQVTVSS | low polyreactivity
31 | QVQLVESGGGLVQAGGSLRLSCAASGSILGSNAMGWYRQPPGKESEFVAAITTITGSTYYADSVKGRFTISRDNAKNTVYLEMNSLKPEDTAVYYCNADAHESTDYTLYFSGPYYYWGQGTQVTVSS | low polyreactivity

Source: the nanobody polyreactivity screen of Harvey et al. (2022)
